Residue numbers refer to the chain shown, from its start.
Experiments:
[1] = FP purification and fluorescence characterization in vitro (spectra, extinction coefficient, quantum yield); format: physicochemical
Procedure: FP genes were expressed on a pBAD vector (Life Technologies) with a polyhistidine tag on the C terminus, cells were lysed with B-PER (Thermo Scientific), and purified using Ni-NTA (Qiagen) puri-fication. PCB (HO-1+PcyA) and BV (HO-1) incorporation in Escherichia coli was performed simultaneously during constitu-tively active FP expression. Extinction coefficient was determined by PCB or BV absorbance as described35,36 (Table 3, smURFP+BV and TDsmURFP+BV, and Table 2) or calculated for the apoproteins by determining the protein concentration by the BCA protein assay (Pierce), and a specific chromo-phore concentration was added (specified in the Purification of FP lacking chromophore and in vitro chromophore incorporation section) to get 1 and 2 chromophore species (Table 5, not including (Escherichia coli)). When FP chromophore (PCB or BV) was expressed in Escherichia coli, the PCB and BV Q band had absorbance that overlapped with detection of BCA or Bradford assay of 562 nm and 592 nm, respectively. We used the previously published protocols35,36, where there was no change of the BV absorbance at 390 nm when free in solution or attached to the FP. smURFP+BV denaturation with 1 M urea caused no change in the BV absorbance at 390 nm, but the Q band was reduced ˜20-fold. Therefore, the extinction coefficient of BV at 390 nm was used to calculate the concentration of holoprotein (FP+PCB or BV) concentration.
(§1) EX and EM spectra were obtained using SPEX Fluorolog fluorometer (Horiba). Absorbance spectra were obtained using UV-VIS Spectrophotometer Cary Eclipse (Varian) or UV-2700 (Shimadzu). Quantum yield was determined relative to Cy5. Incorporation rates of BV on 0.5 μM smURFP was performed by addition of smURFP to PBS alone or with 20% fetal bovine serum (FBS) and mixed by pipetting in a quartz cuvette. Chromophore was added last, mixed by pipetting, and fluorescence was recorded using SPEX Fluorolog fluorometer (Horiba). Photobleaching was characterized on bubbles of purified FP or Cy5 within mineral oil using light from a 150 W xenon arc lamp with 100% light through EX/EM=628(40)/680(30) nm for smURFP, TDsmURFP, and Cy5 or EX/EM=665 (45)/725 (50) nm for IFP 1.4 focused with a 40×, 1.2 numerical aperture C-Apochromat oil-immersion lens on a Zeiss Axiovert 200M inverted microscope. Photobleaching times were normalized to reflect an initial illumination intensity producing 1,000 photons per fluorescent molecule per second as previously described^37.
HO-1 was removed by digesting the pBAD vector (Life Technology) with MscI and PmeI (NEB). smURFP and TDsmURFP were expressed and purified as described above. No chromophore was present on smURFP and TDsmURFP (confirmed by UV, fluorescence imaging, and MS). For predominant fluorescent species+2 chromophores, a ten-fold excess of chromophore was added to smURFP and TDsmURFP. For predominant fluorescent species+1 chromophore, a quarter concentration of chromophore was added to smURFP and TDsmURFP. Chromophore was added in PBS+10% FBS at 37° C. overnight. smURFP+chromophore and TDsmURFP+chromophore were purified using NiNTA (Qiagen) to remove excess or noncovalently attached chromophore.

[2] = In vitro photobleaching of bubbles of purified FP or Cy5 in mineral oil; format: physicochemical
Procedure: as §1

Escherichia coli = assay: Fluorescence of FPs expressed in Escherichia coli; format: cell-based; conditions: for fold brighter than R4-1: expressed in E. coli with HO-1
Procedure: TeAPCα gene (codons optimized for Escherichia coli) was made by GenScript. Mutations were placed by random mutagenesis using GeneMorphII Random Mutagenesis Kit (Agilent Technologies). Screens for mutants that fluoresce with PCB or BV were performed by subcloning into a pBAD vector (Life Technologies) that expressed cyanobacteria Synechocystis HO-1 and Synechocystis PcyA genes for PCB production and Synechocystis HO-1 only for BV production, as previously described^34. Libraries were expressed in TOP 10 Electrocompetent Escherichia coli cells (Life Technologies) with addition of 0.2% arabinose to LB agar plates (FPs were constitutively expressed in Escherichia coli). Fluorescence was imaged on plates using a BioSpectrum AC Imaging System (UVP) with EX/EM=628(40)/690(50) nm for FPs+PCB, EX/EM=685(40)/710LP nm for rounds 4 and 5 FPs+BV, and EX/EM=650(13)/690(50) nm for Cy5-like FPs+BV (rounds 6-12). At round 6, 5-10 of the brightest colonies on each plate were combined in LB+0.2% arabinose, grown ˜18 h, mixture of plasmid DNA was purified, and TOP10 cells were transformed and plated on LB agar plates+0.2% arabinose. Fluorescence was screened on plates (as described above), 10-20 of the brightest colonies were screened in liquid culture fluorescence (FIG. 7a-e), plasmid DNA was purified, and DNA was sequenced. The plasmid DNA of 2-3 of the brightest FPs was chosen for mutagenesis for the subsequent round. When choosing DNA for subsequent mutagenesis rounds, genes with increased and/or novel silent DNA mutations were chosen over other DNA that had the same DNA and/or protein sequence of the previous round. Site-specific mutagenesis was performed using QuikChange Lightning Mutagenesis Kit (Agilent Technologies) to create smURFP (C4S mutation) and smURFP C52S.

[3] = Native PAGE quaternary structure / stoichiometry; format: physicochemical
Procedure: Native PAGE was run using NativePAGE Novex Bis-Tris Gel System (Life Technologies) on Native PAGE 4-16% Bis-Tris protein gels (Life Technologies). SDS-denaturing PAGE was run using NuPAGE MOPS SDS running buffer (Life Technologies) and NuPAGE Novex 4-12% Bis-Tris gels (Life Technologies). Precision Plus Protein Dual Color Standards (Bio-Rad) were used as an MW ladder. Zinc blot was performed after running the SDS-PAGE gel using the described method^44. Fluorescence was imaged using a BioSpectrum AC Imaging System (UVP) with EX/EM=535(45)/605(70) nm for tdTomato, EX/EM=650(13)/690(50) nm for smURFP and TDsmURFP, EX/EM=685(40)/710LP nm for IFP1.4 and BV+zinc.

## Cy5 [reference compound]
[1]; Table 5
  Emission Maximum: 670 nm
  Excitation Maximum: 649 nm
  Extinction Coefficient: 250,000 ^ m^−1cm^−1/chromophore
  Quantum Yield: 25%
  molecular brightness relative to eGFP: 186%
[2]; excitation intensity yielding 1,000 photons per s
  in vitro photobleaching t50%: 22 s
[2]; time to bleach 50% from an initial emission rate of 1,000 photons per s
  In vitro photostability t50%: 22 s

B1: R3-2 + PCB: evolved APCα FP, SEQ ID NO: 4, with PCB (protein)
chain: MKTGEQRVKIATLLSENEKKIVDKASQDLWRRRPDFIAPGGIAFGQRERALCLRDYGWYLRLITFCLLAGDKDPIESIGLIGIREMYNSLGVPVPGMMESIRCLKEASLSLLDEEDAKETAPYFDYIIQAMS
modifications: phycocyanobilin chromophore; smRUFP Variant Polypeptide
[1]
  extinction coefficient (EC): 74,000 M^−1cm^−1
  quantum yield (QY): 13%
[1]; Table 4
  Molecular Brightnes Relative to smURFP: 30%
[1]; evolved APCα FPs, Table 4
  Emission Maximum: 648 nm
  Excitation Maximum: 620 nm
  Extinction Coefficient: 74,000 M^−1 cm^−1
  Quantum Yield: 13%
Escherichia coli
  fluorescence when expressed in E. coli (qualitative): lacked fluorescence with BV

B2: R7-7: evolved APCα FP, SEQ ID NO: 8, with BV (protein)
chain: B1 chain with G4C, E18K, R33H, F36L, G45S, R61H, D73G, Q129K, M131I
modifications: biliverdin chromophore; smRUFP Variant Polypeptide
[1]
  extinction coefficient (EC): 250,000 M^−1cm^−1
  quantum yield (QY): 16%
[1]; Table 4
  Molecular Brightnes Relative to smURFP: 123%
[1]; evolved APCα FPs, Table 4
  Emission Maximum: 676 nm
  Excitation Maximum: 648 nm
  Extinction Coefficient: 250,000 M^−1 cm^−1
  Quantum Yield: 16%
Escherichia coli
  fold brighter than R4-1: 1.3 fold

B3: R8-9: evolved APCα FP, SEQ ID NO: 10, with BV (protein)
chain: B1 chain with G4C, K9N, E18K, F36L, G45S, E48D, R61H, D73G, G96D, Q129K
modifications: biliverdin chromophore; smRUFP Variant Polypeptide
[1]
  extinction coefficient (EC): 175,000 M^−1cm^−1
  quantum yield (QY): 12%
[1]; Table 4
  Molecular Brightnes Relative to smURFP: 65%
[1]; evolved APCα FPs, Table 4
  Emission Maximum: 672 nm
  Excitation Maximum: 644 nm
  Extinction Coefficient: 175,000 M^−1 cm^−1
  Quantum Yield: 12%
Escherichia coli
  fold brighter than R4-1: 5.7 fold

B4: R4-1: evolved APCα FP, SEQ ID NO: 5, with BV (protein)
chain: B1 chain with G45S, G57R, R61H, Q129K
modifications: biliverdin chromophore; smRUFP Variant Polypeptide
[3]
  quaternary structure on native gel: tetramer
[1]
  extinction coefficient (EC): 93,000 M^−1cm^−1
  quantum yield (QY): 9.0%
[1]; Table 4
  Molecular Brightnes Relative to smURFP: 26%
[1]; evolved APCα FPs, Table 4
  Emission Maximum: 674 nm
  Excitation Maximum: 647 nm
  Extinction Coefficient: 93,000 M^−1 cm^−1
  Quantum Yield: 9.0%

B5: R8-8: evolved APCα FP, SEQ ID NO: 9, with BV (protein)
chain: MKTCEQRVKIATLLSENKKKIVDKASQDLWRRHPDLIAPGGIAFSQRDRALCLRDYGWYLHLITFCLLAGDKGPIESIGLIGIREMYNSLGVPVPAMMESIRCLKEASLSLLDEEDANETAPYFDYIIKAMS
modifications: biliverdin chromophore; smRUFP Variant Polypeptide
[1]
  extinction coefficient (EC): 260,000 M^−1cm^−1
  quantum yield (QY): 13%
[1]; Table 4
  Molecular Brightnes Relative to smURFP: 104%
[1]; evolved APCα FPs, Table 4
  Emission Maximum: 672 nm
  Excitation Maximum: 648 nm
  Extinction Coefficient: 260,000 M^−1 cm^−1
  Quantum Yield: 13%
Escherichia coli
  fold brighter than R4-1: 5.8 fold

B6: R11-2: evolved APCα FP, SEQ ID NO: 12, with BV (protein)
chain: B5 chain with K9N, S15T, G82S, D113E
modifications: biliverdin chromophore; smRUFP Variant Polypeptide
[1]; Table 4
  Molecular Brightnes Relative to smURFP: 70%
[1]; evolved APCα FPs, Table 4
  Emission Maximum: 672 nm
  Excitation Maximum: 642 nm
  Extinction Coefficient: 190,000 M^−1 cm^−1
  Quantum Yield: 12%
Escherichia coli
  fluorescence when expressed in E. coli (qualitative): slightly more fluorescent than R10-10

B7: R10-10: evolved APCα FP, SEQ ID NO: 11, with BV (protein)
chain: B5 chain with K9N, S15T
modifications: biliverdin chromophore; smRUFP Variant Polypeptide
[3]
  quaternary structure on native gel: homodimer
[1]
  extinction coefficient (EC): 200,000 M^−1cm^−1
  quantum yield (QY): 15%
[1]; Table 4
  Molecular Brightnes Relative to smURFP: 93%
[1]; evolved APCα FPs, Table 4
  Emission Maximum: 672 nm
  Excitation Maximum: 646 nm
  Extinction Coefficient: 200,000 M^−1 cm^−1
  Quantum Yield: 15%
Escherichia coli
  fold brighter than R4-1: 8.3 fold

Source: US10501502B2, “Allophycocyanin alpha-subunit evolved labeling proteins (smURFPs)” (The Regents of the University of California, priority 2016, dated 2019)
